experiment: soluble on expression in E. coli; label from the status in PepcDB or PDB records

Sequence	soluble on expression in E. coli
MDQERARKRGITMGKQEFDGMSRISGLLTPELRATIEAVLAKLAAPGACNPDDQTPLVDDTPDADAVRRDTRSQAQRHHDGLLAGLRGLLASGELGQHRGLPVTVVVSTTLKELEAATGKGVTGGGSRVPMSDLIRMASNAHHYLALFDGAKPLALYHTKRLASPAQRIMLYAKDRGCSLEHHHHHH	soluble
MDAVSPLDAYERAVQRGFQPDQAQLQAVQQLQACYLALTESRGQAQGVYLWGPVGRGKTWLMDRFFESLNVPARRQHFHHFMRWVHKRMFELMGTPQPLTVVAKELARDVRVMCFDELFVTDIGDAVILGGLLQVMFEQGVVLVCTSNQPPDQLYSHGHNRERFLPAVAAIQKYMKVVAVDGGEDHRLHPGQLHQRYWVAQAGQPSALQGIFEALSAGQPVHDSQVMLGYRSINVVEHSDTAVWCRYRDLCEQPLAAMDFIALCDRFSVILLSEVPVLGAVQREAKIARGTEDGVEQVTAGDRELPQLSPNDDGVRRFIALVDECYDRRIPLYVEAPVPMDQLYTQGYLSFAFRRTLSRLQEMQLERFTESLEHHHHHH	not soluble
MHHHHHHSSGVDLGTENLYFQSMWSVRPSDMAKKTFNPIRAIVDNMKVKPNPNKTMISLSIGDPTVFGNLPTDPEVTQAMKDALDSGKYNGYAPSIGFLSSREEIASYYHCPEAPLEAKDVILTSGCSQAIDLCLAVLANPGQNILVPRPGFSLYKTLAESMGIEVKLYNLLPEKSWEIDLKQLEYLIDEKTACLIVNNPSNPCGSVFSKRHLQKILAVAARQCVPILADEIYGDMVFSDCKYEPLATLSTDVPILSCGGLAKRWLVPGWRLGWILIHDRRDIFGNEIRDGLVKLSQRILGPCTIVQGALKSILCRTPGEFYHNTLSFLKSNADLCYGALAAIPGLRPVRPSGAMYLMVGIEMEHFPEFENDVEFTERLVAEQSVHCLPATCFEYPNFIRVVITVPEVMMLEACSRIQEFCEQHYHC	soluble
MGSDKIHHHHHHMYKFNPQRIQIGISACLLGEKVRFDGGHKNSTYCNQEIKQFFDYVPICPEMAIGLGAPRKSIRLVRDGETILVQSGDGSLDVTDKLNEYSENKVEELDFLGGYLLCAKSPTCGMERVTEYKIGTNNGSKSGIGVFARKLMERYPLLPVEEEGRLHDMVLRENFFTRVYAYHDWHLMKHEGLTKHKLVKFHSRYKYLLMAHSPTWYRELGPIVANIEDLEQSATRYFEGFMTALKINATRKNHTSTLQHIQGYFKKHLSKEQKTELSEAIMKYREGLLPLLVPITLINHYLREFPTPYIEEQVYLNPHPEALKLRYAY	not soluble
KPNWCPGCGDFSVQAAIQRAAANVGLEPDQLAVISGIGCSGRISGYINAYGFHGVHGRVLPIAQGVKMANRDVTVIASGGDGDGFAIGMGHTVHAIRRNINITYIVMDNQIYGLTKGQTSPRSDVGFKTKSTPSGSVESALNVMEMALTAGATFVAQSFSSDLKELTALIEKGINHNGFSLINVFSPCVTFNKVNTYDWFKENLTKLSDLEGYDPQNRMVAMQTLMEHNGLVTGLIYQNDKQPSYQDLIAGYDEKPLADQDLTIDEGKFKELVGEF	not soluble
MGSDKIHHHHHHMAKIESNDSHLRGILKDELYYQIPIYQRPYQWTEENCEKLLDDLFFNYEDDREGDYFCGSLVLIAISKDSKATTYDVVDGQQRLSTFILLAKVLADLYNDCLDPKNLEHLQEGWKDRHTERKRLSFNTIGSNAEYDFQDALEHFNDSQASKNKNNKNNYLKNAICLKDYLMKKEIKNINDFIEWLYSNVKFITIICPNIDKALRIFNVLNARGLPLNATDIFKGELLKHAKEHEREEFVSRWNALSQKCSDNDLTMETLFSWYNLSQSGNF	not soluble
MAGPQQQPPYLHLAELTASQFLEIWKHFDADGNGYIEGKELENFFQELEKARKGSGMMSKSDNFGEKMKEFMQKYDKNSDGKIEMAELAQILPTEENFLLCFRQHVGSSTEFMEAWRKYDTDRSGYIEANELKGFLSDLLKKANRPYDEPKLQEYTQTILRMFDLNGDGKLGLSEMSRLLPVQENFLLKFQGMKLTSEEFNAIFTFYDKDRSGYIDEHELDALLKDLYEKNKKEMNIQQLTNYRKSVMSLAEAGKLYRKDLEIVLCSEPPM	not soluble
MGSSHHHHHHSSGLVPRGSHMEAPAAVVTGAAKRIGRAIAVKLHQTGYRVVIHYHNSAEAAVSLADELNKERSNTAVVCQADLTNSNVLPASCEEIINSCFRAFGRCDVLVNNASAFYPTPLVQGDHEDNSNGKTVETQVAELIGTNAIAPFLLTMSFAQRQKGTNPNCTSSNLSIVNLCDAMVDQPCMAFSLYNMGKHALVGLTQSAALELAPYGIRVNGVAPGVSLLPVAMGEEEKDKWRRKVPLGRREASAEQIADAVIFLVSGSAQYITGSIIKVDGGLSLVHA	soluble
MGNRLSKIYTRTGDRGETGLAGGRRVPKSHPRIEAIGAVDELNSQLGLLLAELLEARGAHPGLEEIVQALAPVQHRLFDLGGELAMPEYRALDETEVARLESCIDRWNDELGPLKNFILPGGSRPVAQAHVCRSLARSAERRCQALDQEETLEGVGLRYLNRLSDLLFVAARAIARRQGVAEILWEAAAKPD	not soluble
MSNICKTVSLRTRKIKDGHMLSYYLDYYPGYRDESTMKVIRHESLGIYIYAKPKNQMEQKYNLNLMARAEAIRCRRFEAIVNERYDFFDKEKMKGDFLAYFKKLADKKNSKWQHVYMHFRTFTQGKCTFGEINVDLCNRFREYLLTAPQGLHKNRKLHINSAANYWSTFRASIHTAYRDRKIKENPNGFLERIETIPTDKEHLSQDEVIRLASTPCSAPALKRAFLFSCLTALRKSDIKKLTWEEIQPYGSDGVMYVTTRMQKTKDIVHNPISEEALELIGYSPDKRGKVFPDFK	not soluble
METEIPVNEKETSFRRRVYTTIETLIDIENTDQLQEHLPHLHCLGWDEVVEERYVNKQCGFPSCQKAPPKITRNQMFEIDRKEGKIFEFRKQRAKFCSEMCYQKSSFVRKQLDEHPLWITGLTEARTQKVYEVPDESFVSPIAEKSEPVDSQFKKEPSIWLVTDSIIAKVQDMKLSEEAEEPKSLDPEDQDIEPFKLTDDDKDFIKSIKEFRNSNFGPPSTSKLLKTAPKPVLSAKDRKKEDEVLAKLRAKYGNKNALQKKPPILIEAQEIHSKLKTMEKAKEAWLVDLIKSWFTPETRKLVREGARPTGGAAEQILMDFLSGKKVDAEKLVNLPNLDKYNVKEKRLNIFLHSIRNHWMDLEARLHLTPTRRDILSRVASTFQLDSENITGWTKREINSIVIALFIVICLVDVELGDDYFKKDNASPELTAISNELCGLDSFQITGLHAAIKSQC	not soluble
MKRLRCIREIERQRGTRVIAMIHRQEALTFLGIPIYKFITIEDSEEILRAIRLTPEDMPIDLIIHTPGGLALASEQIALALKEHKAKTTVIIPHYAMSGGSLIALAADEIIMDKNAVMGPVDPQIGQYPAASILEAYYRKGEKVSDETLILVDISKKAIKQMEEFVYELLKDKYGDEKAKEIAKKLTSGTW	not soluble
MSLEFLNSLSYGISSHEVNNEFKQIFRELLTNHIIKEHKNKYYLNNGFAFGVLDISSKGTGFLQCFDESFKKDLLIENKNLKGANYKDIVAVKLLPLKKKRPSAKVILVLKRANETSLMITKRYGEAVLGMNIKTGLSTALKASQKSLKALPLGTILKIENENNNIIEVLGHIDDESVDEKISLALFNKNNEFSDACIKEALANGDSVDASMYENRMDLRALPFCTIDPIHAKDFDDAIYFDTQKREIYVAIADVSEYVYAYSAIDKEARNRGFSIYFPHIAIPMLPRPLSENICSLKPHLDRLAYCFKITLNHENKVIKEELFEGIINSKRRFNYDEVDEILIQKPDLKELSWLYELFEITKNLRKMRLKNAFEFRTEELRMNLDENLSLKSTVFEKDTPSHNLIEDCMLLANKAAAKLIDIGVFRNHLSADVRKIDKLLNELRELGIDVNFKPNLPELIRDIQALADELNLRAEVDKLIIKAQKKAEYSSVNAGHFGLGFDKYSHFTSPIRRYSDLILHRLLKAKQKNDEKLFNYLLLNIESTCENLSTLEREADKVAFDFMDRKFARWAAKNIGKKFKALVVQNDGVCIAKLDDEIKGADIILYDTRVNLLENVEVQIMEADIVMAKIYAKITQRLIKEENVEGHHHHHH	not soluble
MTISFNTVPSNTLVPLFYAEMNNSAANTAVTSAPALLIGHASNDAAIEVNSLVLMPSADYARQICGAGSQLARMVEVYRQTDPFGELYVIAVPEARGAAATVRVTVAGEAEESGTLSLYVGRSRVQVPVVNGDDATAVATAIKEAVNGVITLPFTASSDAGVVTLTARHKGLYGNELPVCLNYYGSGGGEILPAGLRVVTEVGAAGSGAPDLTAAVAAMGDEAFDFIGLPFNDAASINMMMTEMNDSSGRWSYARQLYGHVYTAKLGTLSELVGAGDMHNQQHITLAGYEKETQSPVDELVASRLAREAVFIRNDPARPTQTGELVGMLPAPKGKRFIMTEQQTLLSHGVATAYVEGGTLQIQRSVTTYKKNAYGVADNSYLDSETLHTSAYVLRKLKSVITSKYGRHKLANDGTRFGPGQAIVTPAVIKGELLATYRQMERAGIVENYDLFKQYLIVERDADNPNRLNTLFPPDYVNQLRVFAVVNQFRLQYSEESA	not soluble
MITTFETILDKIKAHQTIIIHRHQNPDPDALGSQAGLKEIIAQNFPDKKVLMTGFDEPSLAWISQMDQVTDKDYKEALVIITDTANRPRIDDERYTLGKCLIKIDHHPNDDVYGDFYYVDTSASSASEIIADFAFSQNLTLSDKAAKLLYTGIVGDTGRFLYASTTSKTLSIASQLRHFEFDFAAISRQMDSFPLKIAKLQSYVFEHLTIDESGAAYVLVSQETLKHFDVTLAESSAIVCAPGKIDNVQAWAIFVELTDGNYRVRMRSKEKIINGIAKRHGGGGHPLASGANSANLEENQAIFRELIAVCQEILEHHHHHH	soluble
SNSANAADSGTLNYEVYKYNTNDTSIANDYFNKPAKYIKKNGKLYVQITVNHSHWITGMSIEGHKENIISKNTAKDERTSEFEVSKLNGKIDGKIDVYIDEKVNGKPFKYDHHYNITYKFNGPTDVAGANAP	not soluble
MKCYFRSFDAGIGDCNIIRLVKNEGEQYVIMVDCGSYTEPLKEYLQNALHNHIDLLIATHIDGDHIQGIATMLKKHEGLTVGEIWYNCYKRTKGAEYIELNDQQKAILKQIQKALPVEFDAINYREITATQGKTLAQTILCNEKFKGVWKTEYITSNTEDFDIPGGFGKIVFLAPRQEALKAIENKFKEAFDKYFMQAWNESIENVEELQELLIRLVDAYQDKFGGKQISAKNKPVYNVAFVRKQAKEEGADDSDTNCSSIAFMLECGEHRIAMLGDAFADIIEETIDNKYKDQAKPMECDAIKVSHHGSNGNSSKTLLDRINSHIYFIPGGKGEKYPAWGTFGRIAEKHKDDQAKLIVFSRQCTITEKMNGLNEEVKRELGVETIITEQEYELFEW	not soluble
MTARPDTAIVLAAGLGKRMRPITDTIPKPLVRIAGKTLLDWGLDSLAAAGVAKAVVNVHYLPEQIVAHVAARSAPRIVISDESDRLLDSAGGIVKALPELGEQPFYILNADTFWIDHGPLNLGRLALAWDAAKMDILLMLADLHQATGHCGSTDFLVAPDGALRRSKGDPAGLIYAGAAIIHPRLFKDASAEPHSLNAYFDKAIAAGRLFGMPMHGHWITVGTPDAIPLAEEAVAGALAEMQLEHHHHHH	not soluble
MRKTKTEALKTKEHLMLAALETFYRKGIARTSLNEIAQAAGVTRGALYWHFKNKEDLFDALFQRICDDIENCIAQDAEDAEGGSWAVFRHTLLHFFERLQSNDIYYKFHNILFLKCEHTEQNAAVIAIARKHQAIWREKITAVLTEAVENQDLADDLDKETAVIFIKSTLDGLIWRWFSSCERFDLGKTAPRIIGIMMDNLENHPDLRRK	soluble

Reference: the DeepSol protein solubility set
